Reference: the supplement of paper PMC12042874
± gives the uncertainty stated by the source.

Experiment: amyloid nucleation score (Sup35N fusion, yeast selection) (log enrichment); library NNK1; higher = more nucleation; inactive = no reads after selection
How it was run: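 Three technical output replicates were used for random libraries. Psi-negative yeast expressing peptides of 20 random codons fused to Sup35N were induced with 100 μM copper sulfate for 24 hours and grown 7 days at 30°C on medium lacking adenine and uracil, and input and output plasmid inserts were Illumina-sequenced, excluding sequences with under 100 input reads. The nucleation score is the DiMSum log enrichment of output over input reads, centred on the mode score of non-aggregating sequences.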

| Substance | amyloid nucleation score |
| --- | --- |
| KSYYGSLNLAMSTSLYIQTM | 0.769 ± 0.34 |
| RITAVRGVCLFSADSV | -0.175 ± 0.26 |
| VRVNRLSFLNNALLFWLFAK | 2.3 ± 0.1 |
| AFRSRFVIFHDGIRVLGYAD | -1.13 ± 2.1 |
| SGKPYLLGCTFSSVTLCPQV | -0.227 ± 0.38 |
| QRVRNRM | 0.03 ± 0.33 |
| VLEISIDSDRAPMCGRRMDL | 0.56 ± 1 |
| YQWFMYVF | 4.61 ± 0.11 |
| YWARRYLWAGFFI | -0.322 ± 1.1 |
| MFCIDSRAVAGMRDGRINLG | 1.64 ± 0.21 |
| RVGEKSVEWPAFLRYLMKWF | -0.008 ± 0.5 |
| ARYHYWGGERASSLNKVSQW | 0.699 ± 1 |
| VVDEVNTGNHDLTTSLLQLS | -0.435 ± 0.68 |
| ISTFLRFSQSDEQYYPTE | 0.496 ± 0.48 |
| VRTSYFVAGSGSNAWGGENE | -0.956 ± 0.99 |
| GDSWRSYLRILGTYMVRRWC | 0.244 ± 0.54 |
| SMFRVYYSGGQLQ | 4.75 ± 0.058 |
| IRYQFVWSMSLCGLEMHWSS | 2.55 ± 0.21 |
| RDRDVEFTNDL | 0.614 ± 0.75 |
| FLEFAYVVFKILEKNGGLSY | -1.56 ± 0.86 |
| VVPFRLLDIQRNGCFDHGYP | 0.142 ± 1.4 |
| TWCCYCFLRVFFEERE | -0.298 ± 0.33 |
| KNCPALRSFSSKDSSSFVWS | -0.23 ± 0.43 |
| NSDNSGWWRLLYIVESGISS | 0.019 ± 1.4 |
| RCLGVCYTLDVFRSRMLDKL | -0.097 ± 0.44 |

| Substance | amyloid nucleation score |
| --- | --- |
| LFRSRRLVCDMKFHWTFLYR | -0.853 ± 0.5 |
| HATMVSALLVWGW | -0.286 ± 1.9 |
| IYNIVGSLMSSAVFPGQSIS | -1.38 ± 1.2 |
| TQFEFFWVPKRHSMVHNCMN | -0.337 ± 0.31 |
| PGLLMNRVPVSSTQYIYLEQ | 0.029 ± 0.75 |
| PSVTTS | -0.482 ± 0.58 |
| RLGHDRIFSIRNSQS | -0.287 ± 0.58 |
| NGWNYM | -0.349 ± 1 |
| GMAVFV | 0.18 ± 1.1 |
| WRYRSRCMGGVVDRLLCDVW | 3.33 ± 0.076 |
| VGSPGCMGLVTLNHVP | 0.522 ± 0.24 |
| TDCGSTMNGGCINMCVCGHR | 7.422 ± 0.069 |
| FWSMIGLWILDC | 0.031 ± 0.25 |
| CSAASVCPGD | -0.116 ± 1.5 |
| LFQCASWM | -0.024 ± 0.29 |
| TGQACAWGGSVILTVSCDRY | 2.43 ± 0.12 |
| DTENPSYMNVNCYWRLLFSR | 0.669 ± 0.4 |
| YPQMLVSVLRFMYY | 0.009 ± 0.26 |
| VVVVMRR | 1.94 ± 0.23 |
| MLLSFLYLV | 5.26 ± 0.049 |
| EHHGGISGGNKCCSTCKSRR | 0.361 ± 1 |
| ALDVARDKDVILYEFQLELR | 0.366 ± 0.72 |
| HIVNCVKML | 0.788 ± 0.63 |
| GFLTETDNCTICIFHMFVDN | 6.201 ± 0.059 |
| VTSLCYRNFFGVVEVLRYCQ | 0.677 ± 0.51 |

| Substance | amyloid nucleation score |
| --- | --- |
| SYNFLRPYLLFSHPFSYDSS | 0.21 ± 0.6 |
| QHWNGTNNMILYYFPRPSAR | 5.25 ± 0.065 |
| GYNMTKAYQCVCFIGDLPGT | 4.61 ± 0.13 |
| SPFSGVL | 0.589 ± 0.25 |
| ENPDW | 1.66 ± 0.73 |
| NCYSRDRSWGLDVVRYVVWW | -0.329 ± 1.6 |
| LFRGFWSERSTVSMLFRSRR | -0.124 ± 0.83 |
| GDVPYRNMHCPRFLMREMVV | 0.354 ± 0.25 |
| VELLGQYVICPSTRCRIVEN | 0.254 ± 0.47 |
| LQPNLMEGAMSSGGTEEVTV | -0.565 ± 1.4 |
| LSNRVLEGFNSSWYISIRGF | -0.434 ± 1.7 |
| FMIVKFLIL | 1.5 ± 0.26 |
| VFITSVFVRECNTHESTTIQ | 8.073 ± 0.078 |
| YLLLGYSHYQMNVLFNTRQS | inactive |
| RFIIFNHDLGLRD | -0.384 ± 0.51 |
| ITGFAPVRVVCEYLS | 0.182 ± 0.6 |
| WYLWHMLICLVTFRMNSFFR | 0.707 ± 1 |
| FWLCRYTIGSRLLFVVQTST | 0.986 ± 0.65 |
| FWSWSV | -0.222 ± 0.42 |
| RIDARILLITCL | -1.51 ± 2.4 |
| TYRTWLYLPLQCAIYLGVSL | -0.436 ± 0.64 |
| VVHHEDYMRLGC | -0.948 ± 1.4 |
| NYSYNYLVVKRENTGYSGQV | 0.917 ± 0.42 |
| TKCGIAYFTQICLVPDVSNS | 7.04 ± 0.085 |
| FVSVAQVEE | -1.2 ± 1 |

| Substance | amyloid nucleation score |
| --- | --- |
| QCYIGVKYHSALVWDHTPEA | 2.29 ± 0.61 |
| TGLVWYYCHSHRWNFRPCQW | 0.173 ± 0.55 |
| WFYDAAFTMKVTVAIFVFFR | 0.675 ± 0.71 |
| IVGSVVRGMGLVIIRSTCFW | 3.15 ± 0.18 |
| PTRYRKLKRQAKATYIHSNP | -0.552 ± 1.6 |
| FEFDNR | -0.003 ± 0.53 |
| IHESTWSVKGSWVHQRGPGP | 2.56 ± 0.21 |
| GRLHRRDMIGRHVDDSGPMS | inactive |
| GNFKAMWFYPYRRCWQCT | -0.944 ± 1.1 |
| CVSYNLFLWSYFKRWSNRTC | 0.141 ± 0.79 |
| LFMNCLILRMFTCAFHNSSE | 6.39 ± 0.078 |
| KSTSYNLIDIMAGSSLTNNR | 0.274 ± 0.28 |
| SNGIQPMERI | -1.01 ± 1.7 |
| FNYEGYNMSCCGYRQFMEFG | 5.87 ± 0.073 |
| CLMIKMHSILIDVIYLHTRV | -0.363 ± 0.77 |
| SHPRTYPWDSTDFVWLS | -0.549 ± 1.2 |
| STKQFFRLAFRGPWKTGHKP | 0.273 ± 0.96 |
| HLLSGMITCDDLHGCGLEGI | 0.344 ± 0.35 |
| LRTCIVGKLNQTTEILCGSS | 1.14 ± 0.73 |
| LYAALIIDYA | 0.681 ± 0.66 |
| MASPLSLGKAVALAKHKWGD | 0.001 ± 1.1 |
| KGDVPGYARCEVKTVRTFWM | 0.231 ± 0.41 |
| SYEHVGKPCSCGYGVEI | 0.735 ± 0.32 |
| SKSYVM | 0.468 ± 0.29 |
| RYEMSVHGV | 0.391 ± 0.66 |

| Substance | amyloid nucleation score |
| --- | --- |
| PLTVVLRSV | inactive |
| NWAKGNCYVAFRLKWRYNCG | 0.745 ± 0.74 |
| YYSWQEDGFPFTNVSMFWS | -0.076 ± 0.37 |
| IPKVIGWFTVVTTGVVVDIS | 1.27 ± 0.7 |
| LLSPLTRLYFRKFFSVGKAW | 0.353 ± 1.2 |
| TGDRCWLFEGYAFKEHCFAD | 2.54 ± 0.13 |
| FNLWIP | 2.13 ± 0.17 |
| GKMMVFRVFFRFVPSESWVI | -0.638 ± 0.52 |
| ALTIDRCRAESYLRRLTFLL | -0.653 ± 0.4 |
| KKLVA | 0.286 ± 0.43 |
| DAGNVLARLDGFNAG | -0.121 ± 0.49 |
| GRSTNSSDISNHMRNS | 0.961 ± 0.31 |
| LLRWLFCFEWHDSNMSTNII | -1.76 ± 2.4 |
| RVWYCRGMCRP | -0.239 ± 0.93 |
| LIFLKLSSIRYFLMGHY | 1.43 ± 0.25 |
| SACNLPACRSNKLAGRGRVM | 0.408 ± 0.42 |
| MNVFRGSVPAFPLPPYMRLA | -0.242 ± 0.34 |
| RASHGAYDNFRGKKFMMRVM | -1.01 ± 0.54 |
| FVKVAPANKGISGKRDLCKL | 0.215 ± 0.3 |
| SSVLVLHYRTSG | 2.58 ± 0.09 |
| FEWRFPHQR | -0.025 ± 0.64 |
| DVMRYWVMRVVMPAKFKKAY | -0.244 ± 1.1 |
| DVYTLMGEVDELRSFRIIIR | -0.458 ± 0.27 |
| GLSLIA | 0.983 ± 0.76 |
| QLEDAVKMGLVEFEGRSHGS | 0.78 ± 0.29 |

| Substance | amyloid nucleation score |
| --- | --- |
| PVNLGSDVYYNVRSQCGSMY | -0.218 ± 0.23 |
| MDSTHSIPCHLNVFL | -0.475 ± 0.58 |
| SNRCSPDMESDVHSVKELYR | 0.762 ± 0.41 |
| HVNFNKGRMGGADSAVRCWW | -1.52 ± 1.8 |
| CEAMVLKGCAEAVQYRATDS | -0.23 ± 1.1 |
| VASGSCFFRDPKIVIMSFLW | 3.34 ± 0.088 |
| TSFWLSVKSTNPFNRRQFSD | 0.436 ± 0.35 |
| NGSRYLANYSQS | 0.23 ± 0.36 |
| QGTRGRCGFSRDEVECVVRR | -0.673 ± 1 |
| GKSWFGYCVSLVCMSWVLSD | 0.67 ± 1.2 |
| SFGNVILSGIIRTTVLDRGV | -0.381 ± 0.74 |
| VLLSGDIRCDTSVSVTGLSH | -0.061 ± 0.3 |
| FLNLGSSDQSHYSCTKEWSH | -0.157 ± 0.51 |
| FLCHWLYFRNSYGGYVSRW | 1.92 ± 0.4 |
| FIIWHELWKVMWSSTALSLD | 0.769 ± 0.69 |
| LFLFLRMLTFVTCLIMRLRV | -1.73 ± 2.4 |
| CRNLFMWDIRRGKYITARKK | -0.779 ± 1.6 |
| RLVNPRDCKFNDTRTFCSRR | 0.118 ± 0.52 |
| YKLLYGYWLDWREGRNHKPK | 0.479 ± 0.32 |
| CYKVFPVVSYKVGGASLTAR | 0.105 ± 0.31 |
| FLFFRS | 4.62 ± 0.086 |
| CSGNLVMVLSAACAKVGYLV | -1.48 ± 1.7 |
| YRRVKM | -0.089 ± 0.53 |
| MLIFHTCA | 0.483 ± 1.1 |
| VWLSMEFLCVYTCMPCWSQL | -0.423 ± 0.55 |

| Substance | amyloid nucleation score |
| --- | --- |
| NDGVNPYNMACKMLSCYNSA | 1.14 ± 0.97 |
| AFGVYRVCLVWVHL | 0.232 ± 0.49 |
| WSIEWFYSMSYARIDME | -1.23 ± 0.79 |
| IDMTQGMRLQWMFNRALLCW | 0.813 ± 0.72 |
| VQLRLMDRNREHYGYEESTR | 0.22 ± 0.43 |
| CDSKLHISSSC | 0.313 ± 0.84 |
| LFLGLPELVQNSLDMLVSLW | 0.217 ± 0.31 |
| VVRDRNYPFYLIIGRSVVLG | 5.16 ± 0.061 |
| LMISGPYWR | -0.142 ± 0.56 |
| TFVCIMFLDSSFSSENYGRL | 1.7 ± 0.16 |
| DNYGCYCL | 0.802 ± 0.72 |
| QFMGCRFKLSDSSIWKKSLR | 0.381 ± 0.64 |
| SSFQIRVSVLRRHCISGLIY | 1.01 ± 0.79 |
| SIWCGRYIIMESVGTPLRSR | 0.438 ± 0.8 |
| RCYHWVDLVCVRVGTRACFL | 0.877 ± 1.1 |
| TAQMKDFSLRRNVGFVGSRW | inactive |
| FMLYTTVTERAWRHLN | 0.395 ± 0.36 |
| LSQLN | -0.116 ± 0.26 |
| YLLYDQQVSLRFVWITLSVW | 0.683 ± 0.41 |
| VCRLGSNPVQWVGPGSSVFC | 1.23 ± 0.71 |
| VAFYGFITKINLEIY | 0.578 ± 0.4 |
| SMPCQWR | 0.503 ± 0.51 |
